Stoichiometry N and percent of monomeric COX engaged in the complex data for 1 substance are collected here from article PMC8488679.

Experiment [1] has as its target Apoptosis-inducing factor 1 (AIFM1) (bovine (endogenous in bovine heart mitochondria)). In words: complexome profiling.
Experiment [2] concerns the target cytochrome c oxidase (COX), monomeric (bovine (endogenous in bovine heart mitochondria)) (UniProt P68530). Briefly: complexome profiling.
Chain of UniProt P68530 (P68530 whole entry, looked up): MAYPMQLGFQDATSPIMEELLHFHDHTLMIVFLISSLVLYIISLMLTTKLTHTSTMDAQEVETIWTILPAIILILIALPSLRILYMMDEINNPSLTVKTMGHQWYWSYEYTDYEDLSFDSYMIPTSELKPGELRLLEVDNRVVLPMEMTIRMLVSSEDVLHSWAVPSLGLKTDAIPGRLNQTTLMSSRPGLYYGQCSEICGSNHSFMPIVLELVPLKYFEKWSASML

In experiment [1], “Apoptosis-inducing factor 1 (AIFM1) (natural protein)” returned a stoichiometry N of 2. In experiment [2], this substance came in with a percent of monomeric COX engaged in the complex of 10%.

Usually stoichiometry N stands for a count of units in the complex or per binding partner.
